# B1: Probe_proCHS (dsDNA)
# DNA 1: TTTGAAGGCAAGTGATGTAAAGTGCTAAGTGTTAAGTCAATGATTATAT
# DNA 2: ATATAATCATTGACTTAACACTTAGCACTTTACATCACTTGCCTTCAAA
# B2: Probe_proGLIP (dsDNA)
# DNA 1: CCTGACAGTTGCTATTTAGTGCTGTCTACTTGTTTAGTTGTGGAGCAAATGACT
# DNA 2: AGTCATTTGCTCCACAACTAAACAAGTAGACAGCACTAAATAGCAACTGTCAGG
# Target: TcMYB8 (Tanacetum cinerariifolium (clone W99), UniProt A0A9Y1M041 1-217)
# Test: EMSA; labeled probe 10 uM; EMSA with 10 uM FAM probe; buffer, salt, pH and temperature not stated
# Details: protein: recombinant; tags: 6xHN, C-terminal (pET6HN-C vector); label: 5' 6-FAM; blunt
# Sequence of TcMYB8 (A0A9Y1M041 entry or part of it): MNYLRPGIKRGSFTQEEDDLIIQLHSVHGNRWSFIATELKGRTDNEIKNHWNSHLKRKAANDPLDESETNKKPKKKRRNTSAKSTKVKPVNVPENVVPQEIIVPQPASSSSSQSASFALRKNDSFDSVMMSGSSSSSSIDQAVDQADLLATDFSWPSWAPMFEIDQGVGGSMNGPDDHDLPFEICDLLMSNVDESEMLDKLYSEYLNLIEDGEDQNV
row,Binder,binding result
1,B1,binds
2,B2,binds

# Source: article PMC9602545, “TcMYB8, a R3-MYB Transcription Factor, Positively Regulates Pyrethrin Biosynthesis in Tanacetum cinerariifolium”
